# Results from patent US20080064059A1.
# Columns and labels:
# [1] = molecular target: glycomyoglobin containing GalNAc-α-threonine at position 4 (myoglobin 4TAG mutant, C-terminal 6x His tag) (UniProt P02185); experiment: enzyme-linked lectin-binding assay (ELLA), immobilized myoglobin samples, biotinylated lectin, streptavidin-alkaline phosphatase, pNPP at 405 nm; reference: equivalent concentrations of tyrosine-myoglobin
# [2] = molecular target: glycomyoglobin containing β-GlcNAc-serine at position 4 (Gly4TAG mutant myoglobin, C-terminal His6 tag) (UniProt P02185); experiment: ELISA-like assay, 200 ng immobilized myoglobin, biotinylated BSII, streptavidin-alkaline phosphatase, absorbance at 405 nm; reference: wild-type myoglobin
# Sequence of glycomyoglobin containing β-GlcNAc-serine at position 4 (Gly4TAG mutant myoglobin, C-terminal His6 tag) (P02185 other isoform, or with tags, fused parts or gaps mutant): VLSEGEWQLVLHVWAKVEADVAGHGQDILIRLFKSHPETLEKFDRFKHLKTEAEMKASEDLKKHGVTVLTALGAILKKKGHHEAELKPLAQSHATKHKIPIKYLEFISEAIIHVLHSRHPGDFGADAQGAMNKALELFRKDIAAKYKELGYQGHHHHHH
# Sequence of glycomyoglobin containing GalNAc-α-threonine at position 4 (myoglobin 4TAG mutant, C-terminal 6x His tag) (P02185 other isoform, or with tags, fused parts or gaps mutant): as above
# Sequence of Vicia Villosa lectin (VVL), biotinylated conjugate (P56625 whole entry): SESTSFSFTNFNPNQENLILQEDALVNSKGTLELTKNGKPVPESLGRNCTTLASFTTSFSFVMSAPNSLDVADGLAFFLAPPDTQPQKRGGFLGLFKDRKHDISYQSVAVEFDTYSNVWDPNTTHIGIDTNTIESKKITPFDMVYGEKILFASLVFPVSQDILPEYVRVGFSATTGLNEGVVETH
Substance,fold signal increase versus tyrosine-myoglobin [1] [fold],fold signal versus wild-type myoglobin [2] [fold]
"Vicia Villosa lectin (VVL), biotinylated conjugate (from UniProt P56625 1-185)",10,–
"Bandeiraea simplicifolia II (BSII) lectin, biotinylated",–,> 200
"Dolichos Biflorus lectin (DBL), biotinylated conjugate (from UniProt P05045 23-275)",5,–
